Reference: patent US20210332115A1 (Sanofi, published 2021)

T1: C2 (Comptech A112) (UniProt P06681 21-752)
T1 sequence (looked up): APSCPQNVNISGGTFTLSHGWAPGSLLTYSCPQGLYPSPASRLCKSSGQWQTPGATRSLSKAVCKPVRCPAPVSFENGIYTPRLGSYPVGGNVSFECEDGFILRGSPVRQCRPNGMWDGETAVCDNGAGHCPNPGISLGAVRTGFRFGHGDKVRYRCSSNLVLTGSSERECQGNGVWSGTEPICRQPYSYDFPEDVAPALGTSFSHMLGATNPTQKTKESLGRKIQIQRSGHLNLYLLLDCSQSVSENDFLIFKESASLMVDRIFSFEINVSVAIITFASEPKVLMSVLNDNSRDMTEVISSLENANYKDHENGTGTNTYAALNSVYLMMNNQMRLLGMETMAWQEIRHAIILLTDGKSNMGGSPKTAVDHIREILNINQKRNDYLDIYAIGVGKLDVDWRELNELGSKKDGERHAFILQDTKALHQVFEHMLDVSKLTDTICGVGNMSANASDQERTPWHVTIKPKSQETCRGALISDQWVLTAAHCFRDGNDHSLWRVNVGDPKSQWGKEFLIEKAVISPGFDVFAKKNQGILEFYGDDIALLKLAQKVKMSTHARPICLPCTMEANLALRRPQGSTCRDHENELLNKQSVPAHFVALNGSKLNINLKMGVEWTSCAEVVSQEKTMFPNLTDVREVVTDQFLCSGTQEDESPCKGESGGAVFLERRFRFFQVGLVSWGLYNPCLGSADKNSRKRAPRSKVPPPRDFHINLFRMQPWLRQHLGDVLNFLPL


Legend:
[1] = target: T2, Homo sapiens factor Bb protein (human, UniProt P00751 260-764); test: SPR single cycle kinetics; ratio against VH0/Vκ0
T2 construct: Bought from CompTech (A155); also called complement factor Bb; human factor Bb
T2 sequence (P00751 260-764 limits assumed): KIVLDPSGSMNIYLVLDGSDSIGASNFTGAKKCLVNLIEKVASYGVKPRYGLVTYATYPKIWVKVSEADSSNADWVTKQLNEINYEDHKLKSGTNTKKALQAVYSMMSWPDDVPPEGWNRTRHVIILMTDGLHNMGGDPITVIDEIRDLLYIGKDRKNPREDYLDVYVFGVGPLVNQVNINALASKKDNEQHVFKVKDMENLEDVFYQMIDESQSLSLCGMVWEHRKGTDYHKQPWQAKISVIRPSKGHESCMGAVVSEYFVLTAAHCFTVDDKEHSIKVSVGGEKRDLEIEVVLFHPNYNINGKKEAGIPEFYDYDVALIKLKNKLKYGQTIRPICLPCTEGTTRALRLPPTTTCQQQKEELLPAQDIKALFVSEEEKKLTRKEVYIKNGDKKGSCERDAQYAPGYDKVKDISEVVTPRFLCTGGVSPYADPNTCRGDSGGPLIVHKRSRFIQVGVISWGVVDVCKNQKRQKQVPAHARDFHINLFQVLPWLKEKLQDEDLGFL
Procedure: All single cycle kinetic experiments were run at 25° C. with HBS-P+running buffer (pH 7. 4) (GE Healthcare, Little Chalfont, UK).
Antibodies were diluted in running buffer to a final concentration of 1 μg/ml, based on concentrations assessed by ELISA titer. At the start of each cycle, antibodies were loaded onto Fc2, Fc3 and Fc4 of the Protein A chip (GE Healthcare, Little Chalfont, UK). IgGs were captured at a flow rate of 10 μl/min to give an immobilization level (RL) of ˜63 RU, the theoretical value to obtain an Rmax of ˜50 RU. The surface was then allowed to stabilize. Single cycle kinetic data was obtained with factor Bb (CompTech, Tyler, USA) as the analyte at a flow rate of 30 μl/min to minimize any potential mass transport limitations. Multiple repeats with the reference chimeric antibody were performed to check the stability of the surface and analyte over the kinetic cycles. The signal from the reference channel Fc1 (no antibody) was subtracted from that of Fc2, Fc3 and Fc4 to correct for differences in non-specific binding to a reference surface. A four point, two-fold dilution range from 0. 78 nM to 6. 25 nM factor Bb without regeneration between each concentration was used. The association phase for the four injections of increasing concentrations of factor Bb was monitored for 200 seconds each time and a single dissociation phase was measured for 200 seconds following the last injection of factor Bb. Regeneration of the Protein A surface was conducted using two injections of 10 mM glycine-HCL pH 1. 5.
Single cycle kinetics using cell culture supernatants were performed as described above. […] The relative KD was calculated by dividing the KD of the VH0/Vκ0 reference antibody by that of the humanized variant assayed in the same experiment.

[2] = target: T2, Homo sapiens factor Bb protein; test: SPR single cycle kinetics; against cynomolgus monkey factor Bb
Procedure: The ability of VH4/VK6 and VH6/VK7 to bind to zymogen factor B and factor Bb from both human and cynomolgus monkey was determined by surface plasmon resonance using a Biacore T200. Human factor B and factor Bb were purchased from Comptech and cynomolgus monkey factor B and factor Bb were purified in-house. Briefly, the monoclonal antibodies were captured on a Biacore Series S Protein A chip in HBSP+ (10 mM HEPES, 150 mM NaCl, 0.05% P20 pH 7.4) at a flow rate of 30 μL/min. A five-point concentration series of each analyte was tested for binding using single cycle kinetics with a contact time of 180 seconds per concentration followed by a 600 sec dissociation at 25° C. and a flow rate of […]. Both human and cynomolgus monkey factor B started at a concentration of 500 nM followed by 2-fold dilutions, while human and cynomolgus monkey factor Bb started at concentrations of 30 nM and 150 nM, respectively, followed by 2-fold dilutions. Data were analyzed using the Biacore evaluation software using a 1:1 binding model. […] Binding to human or cynomolgus monkey factor B was barely detectable and the small signal that was observed was dominated by non-specific binding.

C2 (Comptech A112) = target: T1, C2 (Comptech A112); test: ELISA, target coated at 2.5 µg/mL, biotinylated antibody titrated, streptavidin-HRP, OD450 background subtracted
Procedure: Briefly, complement and plasma proteins were coated onto ELISA plates at 2. 5 μg/mL in PBS overnight at 4° C. Plates were then blocked with Casein for 1 hour at room temperature and washed four times with 1× DPBS/0.05% Tween-20 followed by a single wash with 1× DPBS. Serial dilutions starting at 50 μg/ml of biotinylated chimeric parent or VH6/VK7-IgG4v2 were added to the plate in PBS/0.1%casein/0.1%Tween-20 and incubated for 2 hours at room temperature. Plates were washed as described and a 1:10,000 dilution of streptavidin-HRP (Southern Biotech 7100-05) in PBS/0.1% casein/0.1% Tween-20 was added to the plate and incubated for 30 minutes at room temperature. Plates were again washed and Ultra TMP ELISA (Thermo 34028) was added to the plate for 1 minute, followed by stop solution). OD 450 nm was read in a plate reader and background at 620 nm was subtracted. Both the chimeric parent (FIG. 8A) and the humanized variant (FIG. 8B) show complete specificity for factor Bb.

[3] = target: T2, Homo sapiens factor Bb protein; test: BLI, multi-cycle kinetics, antibody loaded on anti-hIgG Fc sensors, human factor Bb in solution (100 nM to 0.14 nM), 1:1 fit
Procedure: Multicycle kinetic analysis was performed on CHO and HEK-produced VH6/VK7-IgG4v2 antibodies using biolayer interferometry. Antibodies were diluted to 10 μg/mL in PBS+ 0.02%. Tween20, 0.1% BSA, 0.05% sodium azide and loaded onto anti-hIgG Fc sensors (pre-equilibrated in the same buffer) for 90 seconds followed by a 60-minute baseline in buffer. Binding of a concentration series of human factor Bb (Complement Technologies, #A155), ranging from 100 nM to 0.14 nM in 2-fold dilutions, was measured in a 300 second association in the same buffer, followed by a 300 second dissociation step.

| Relative KD [1] | fold higher affinity for human factor Bb compared to cynomolgus monkey factor Bb [2] [fold] | binding result (C2 (Comptech A112)) | Kd [3] [nM] | Binder |
| --- | --- | --- | --- | --- |
| 1 | – | – | – | VH0/Vκ0 (Chimeric) (antibody, V domains shown, also called chimeric antibody) VH: EVQLVESGGALVKPGGSLKLSCAASGFTFSNYAMSWVRQTPEKRLEWVATISNRGSYTYYPDSVKGRFTISRDNAKNTLYLQMSSLRSEDTALYYCARERPMDYWGQGTSVTVSS VL: DIVMTQSHKFMSTSVGDRVSITCKASQDVGTAVAWYQQKPGQSPKLLIYWASTRHTGVPDRFTGSGSGTDFTLTITNVQSEDLAVYFCHQHSSNPLTFGAGTKLELK |
| – | ~10 | no binding | 2.9 | VH6/Vκ7-IgG4v2 (antibody, also called VH6/VK7-IgG4v2; VH6/VK7-IgG4v2_HEK) heavy: not shown light: DIQMTQSPSTLSASVGDRVTITCKASQDVGTAVAWYQQKPGKAPKLLIYWASTRHTGVPDRFSGSGSGTDFTLTISSLQAEDFAVYFCHQHSSNPLTFGQGTKLEIKRTVAAPSVFIFPPSDEQLKSGTASVVCLLNNFYPREAKVQWKVDNALQSGNSQESVTEQDSKDSTYSLSSTLTLSKADYEKHKVYACEVTHQGLSSPVTKSFNRGEC |
